# Reference: patent US20220025029A1 (Regeneron, published 2022)
# B1: H4H1232N (antibody, human IgG4, V domains shown)
# VH: EVQLVESGGGLVKPGGSLRLSCAASGFTFRNYNINWVRQAPGKGLEWVSLISGSSSYIYYADSVKGRFTVSRDNAKNSLYLQMNSLRAEDTAVYYCARRTLSYYVMDVWGQGTTVTVSS
# VL: DIQVTQSPSPLSASVGDRVTITCRASQGISNYLAWYQQKPGRVPQLLIYAASTLQSGVPSRFSGSGSGTDFTLTISSLQPEDVATYYCQKYNSAPYTFGQGTKLEIK
# notes: human IgG4 Fc (H4H prefix)
# B2: H4H2864P (antibody, human IgG4, V domains shown)
# VH: EVQLVESGGGLAQPGGSLRLSCAASGFTFNNYAMTWVRQAPGKGLDWVSAISDSGRSTFSADSVKGRFTISRDNSKNTLYLQMDSLRAEDTALYYCAKHRNWNYPVFDYWGQGTLVTVSS
# VL: DIQLTQSPSFLSASVGDRVTITCWASQGISSYLAWYQQKPGKAPKLLIYSASTLQSGVPSRFSGSGSGTEFTLTISSLQPEDFATYYCQQLNSYPFTFGPGTKVDIK
# notes: human IgG4 Fc (H4H prefix)
# B3: H4H1616N (antibody, human IgG4, V domains shown)
# VH: EVELLESGGGLVQPGGSLRLSCAASGFTFSSYAMSWVRQAPGKGLEWVSSISGRVGSTHFADSVKGRFTFSRDNSKNTLYLQLSSLRAEDTAVYYCARSRGAAYFDYWGQGTLVTVSS
# VL: DIQMTQSPSSLSASVGDRVTITCQANQDISNFLNWYQQRPGKAPNLLIYAASNLETGVPSRFSGSGSGTDFTFTISSLQPEDIATYYCQHYDNFPFTFGPGTKVDIK
# notes: human IgG4 Fc (H4H prefix)
# B4: H4H2645P (antibody, human IgG4, V domains shown)
# VH: EVQLVESGGGLVQPGGSLRLSCAASGFTFSTYAMHWVRQAPGKGLEWVSSISGRGRNSDHADSVKGRFTISRDNSKNTLYLQMNSLRAEDTAVYYCARTEYFHHWGQGTLVTVSS
# VL: DIQMTQSPSSLSASVGDRITITCRASQDINNYLAWFQQKPGKAPKSLIYGASSLQSGVPSKFSGSGSGTDFTLTISSLQPEDFATYYCQQYSSYPFTFGPGTKVDIK
# notes: human IgG4 Fc (H4H prefix)
# What was measured:
# [1] = target: T1, natural Fel d1 (Indoor Biotech, #NA-FD1-2) (cat, UniProt P30438 23-92; P30440 18-109); assay: Octet BLI sandwich; nFel d1 pre-complexed with captured mAb-1 H4H2597P (competitor); self-competition value subtracted
# T1 construct: Bought natural heterodimeric glycoprotein, chains linked by disulfide bonds; also called nFel d1; nFel d 1
# [2] = target: T1, natural Fel d1 (Indoor Biotech, …); assay: Octet BLI sandwich; nFel d1 pre-complexed with captured mAb-1 H4H1232N (competitor); self-competition value subtracted
# [3] = target: T1, natural Fel d1 (Indoor Biotech, …); assay: Octet BLI sandwich; captured mAb-1 H4H1300N, which did not pre-complex with nFel d1; self-competition value subtracted
# [4] = target: T1, natural Fel d1 (Indoor Biotech, …); assay: Octet BLI sandwich; nFel d1 pre-complexed with captured mAb-1 H4H1238N (competitor); self-competition value subtracted
# [5] = target: T1, natural Fel d1 (Indoor Biotech, …); assay: Octet BLI sandwich; nFel d1 pre-complexed with captured mAb-1 H4H2636P (competitor); self-competition value subtracted
# [6] = target: T1, natural Fel d1 (Indoor Biotech, …); assay: Octet BLI sandwich; nFel d1 pre-complexed with captured mAb-1 H4H2864P (competitor); self-competition value subtracted
# [7] = target: T1, natural Fel d1 (Indoor Biotech, …); assay: Octet BLI sandwich; nFel d1 pre-complexed with captured mAb-1 H4H1616N (competitor); self-competition value subtracted
# [8] = target: T1, natural Fel d1 (Indoor Biotech, …); assay: SPR (Biacore 2000), mAb captured via anti-human Fc, nFel d 1 injected, 25 C
# [9] = target: T1, natural Fel d1 (Indoor Biotech, …); assay: Octet BLI, mAb captured on anti-hFc tip, 500 nM nFel d1
# [10] = target: T1, natural Fel d1 (Indoor Biotech, …); assay: SPR (Biacore), mAb captured, natural Fel d1 injected, 25 C;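 note: rate constants obtained by fitting association and dissociation phases to a one-to-one binding model, with Kd and half-life derived from those rate constants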
# [11] = target: T1, natural Fel d1 (Indoor Biotech, …); assay: Octet BLI sandwich; nFel d1 pre-complexed with captured mAb-1 H4H2645P (competitor); self-competition value subtracted
# T1 sequence (P30438 other isoform, or with tags, fused parts or gaps, chain 1 of 2): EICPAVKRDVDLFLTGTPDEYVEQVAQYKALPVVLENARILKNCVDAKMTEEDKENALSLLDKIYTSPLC
# T1 sequence (P30440 18-109, chain 2 of 2): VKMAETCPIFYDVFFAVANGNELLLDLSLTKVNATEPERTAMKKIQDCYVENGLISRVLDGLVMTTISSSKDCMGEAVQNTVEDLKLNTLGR
binder,measurement,setting,value
B1,Response of mAb-2 Binding to nFel d1 pre-complexed with mAb-1,[1],-0.03 nm
same,Response of mAb-2 Binding to nFel d1 pre-complexed with mAb-1,[2],0 nm
same,Response of mAb-2 Binding to nFel d1 pre-complexed with mAb-1,[3],0.02 nm
same,Response of mAb-2 Binding to nFel d1 pre-complexed with mAb-1,[4],0.76 nm
same,Response of mAb-2 Binding to nFel d1 pre-complexed with mAb-1,[5],0.29 nm
same,Response of mAb-2 Binding to nFel d1 pre-complexed with mAb-1,[6],0.3 nm
same,Response of mAb-2 Binding to nFel d1 pre-complexed with mAb-1,[7],0.18 nm
same,600 nM nFel d 1 Bound (RU),[8],42 RU
same,Kd,[8],0.155 nM
same,koff,[8],0.000472 s⁻¹
same,kon,[8],3.05e+06 M⁻¹ s⁻¹
same,t1/2,[8],24 min
same,Amount of 500 nM nFel d1 Bound,[9],0.08 nm
same,Kd,[10],0.207 nM
same,koff,[10],0.000331 s⁻¹
same,kon,[10],1.6e+06 M⁻¹ s⁻¹
same,t1/2,[10],35 min
B2,Response of mAb-2 Binding to nFel d1 pre-complexed with mAb-1,[1],0.54 nm
same,Response of mAb-2 Binding to nFel d1 pre-complexed with mAb-1,[2],0.71 nm
same,Response of mAb-2 Binding to nFel d1 pre-complexed with mAb-1,[3],0.06 nm
same,Response of mAb-2 Binding to nFel d1 pre-complexed with mAb-1,[4],0.62 nm
same,Response of mAb-2 Binding to nFel d1 pre-complexed with mAb-1,[5],0 nm
same,Response of mAb-2 Binding to nFel d1 pre-complexed with mAb-1,[11],-0.01 nm
same,Response of mAb-2 Binding to nFel d1 pre-complexed with mAb-1,[6],0 nm
same,Response of mAb-2 Binding to nFel d1 pre-complexed with mAb-1,[7],-0.01 nm
same,Amount of 500 nM nFel d1 Bound,[9],0.08 nm
same,Kd,[10],0.801 nM
same,koff,[10],0.00135 s⁻¹
same,kon,[10],1.68e+06 M⁻¹ s⁻¹
same,t1/2,[10],9 min
B3,Response of mAb-2 Binding to nFel d1 pre-complexed with mAb-1,[1],0.4 nm
same,Response of mAb-2 Binding to nFel d1 pre-complexed with mAb-1,[2],0.54 nm
same,Response of mAb-2 Binding to nFel d1 pre-complexed with mAb-1,[3],0.06 nm
same,Response of mAb-2 Binding to nFel d1 pre-complexed with mAb-1,[4],0.43 nm
same,Response of mAb-2 Binding to nFel d1 pre-complexed with mAb-1,[5],0.01 nm
same,Response of mAb-2 Binding to nFel d1 pre-complexed with mAb-1,[11],0.01 nm
same,Response of mAb-2 Binding to nFel d1 pre-complexed with mAb-1,[6],0.01 nm
same,Response of mAb-2 Binding to nFel d1 pre-complexed with mAb-1,[7],0 nm
same,Amount of 500 nM nFel d1 Bound,[9],0.09 nm
same,Kd,[10],5.14 nM
same,koff,[10],0.00124 s⁻¹
same,kon,[10],241000 M⁻¹ s⁻¹
same,t1/2,[10],9 min
B4,Response of mAb-2 Binding to nFel d1 pre-complexed with mAb-1,[1],0.55 nm
same,Response of mAb-2 Binding to nFel d1 pre-complexed with mAb-1,[2],0.75 nm
same,Response of mAb-2 Binding to nFel d1 pre-complexed with mAb-1,[3],0.05 nm
same,Response of mAb-2 Binding to nFel d1 pre-complexed with mAb-1,[4],0.62 nm
same,Response of mAb-2 Binding to nFel d1 pre-complexed with mAb-1,[5],0 nm
same,Response of mAb-2 Binding to nFel d1 pre-complexed with mAb-1,[11],0 nm
same,Response of mAb-2 Binding to nFel d1 pre-complexed with mAb-1,[6],-0.01 nm
same,Response of mAb-2 Binding to nFel d1 pre-complexed with mAb-1,[7],-0.01 nm
same,Amount of 500 nM nFel d1 Bound,[9],0.1 nm
same,Kd,[10],0.459 nM
same,koff,[10],0.000261 s⁻¹
same,kon,[10],569000 M⁻¹ s⁻¹
same,t1/2,[10],44 min
